Key:
[1] = target: T1, pro-transglutaminase derived from S. mobaraense IFO13819 (transglutaminase having the pro-structure part)
T1 chain: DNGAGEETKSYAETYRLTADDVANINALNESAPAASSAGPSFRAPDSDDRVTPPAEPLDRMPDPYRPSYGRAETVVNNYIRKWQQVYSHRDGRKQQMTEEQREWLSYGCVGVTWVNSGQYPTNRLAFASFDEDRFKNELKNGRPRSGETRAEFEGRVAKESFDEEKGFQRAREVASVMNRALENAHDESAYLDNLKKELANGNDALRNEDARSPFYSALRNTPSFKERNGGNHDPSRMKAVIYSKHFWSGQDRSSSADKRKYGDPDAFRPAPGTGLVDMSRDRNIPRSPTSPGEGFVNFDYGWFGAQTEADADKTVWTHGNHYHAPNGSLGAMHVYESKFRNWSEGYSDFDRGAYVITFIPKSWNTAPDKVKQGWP

[2] = target: T2, pro-transglutaminase of S. mobaraense, Ala-Pro deletion type of the pro-structure part
T2 chain: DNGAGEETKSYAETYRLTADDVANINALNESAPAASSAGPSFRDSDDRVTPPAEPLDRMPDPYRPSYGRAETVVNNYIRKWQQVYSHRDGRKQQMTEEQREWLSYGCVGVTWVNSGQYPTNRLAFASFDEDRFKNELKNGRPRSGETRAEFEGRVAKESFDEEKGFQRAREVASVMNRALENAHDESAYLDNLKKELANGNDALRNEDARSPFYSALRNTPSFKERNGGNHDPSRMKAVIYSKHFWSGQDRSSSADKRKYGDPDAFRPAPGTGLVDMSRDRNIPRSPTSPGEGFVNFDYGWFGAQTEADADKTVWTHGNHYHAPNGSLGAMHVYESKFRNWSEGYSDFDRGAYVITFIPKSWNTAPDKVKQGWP

[3] = target: T3, pro-transglutaminase of S. mobaraense, Asp deletion type of the pro-structure part
T3 chain: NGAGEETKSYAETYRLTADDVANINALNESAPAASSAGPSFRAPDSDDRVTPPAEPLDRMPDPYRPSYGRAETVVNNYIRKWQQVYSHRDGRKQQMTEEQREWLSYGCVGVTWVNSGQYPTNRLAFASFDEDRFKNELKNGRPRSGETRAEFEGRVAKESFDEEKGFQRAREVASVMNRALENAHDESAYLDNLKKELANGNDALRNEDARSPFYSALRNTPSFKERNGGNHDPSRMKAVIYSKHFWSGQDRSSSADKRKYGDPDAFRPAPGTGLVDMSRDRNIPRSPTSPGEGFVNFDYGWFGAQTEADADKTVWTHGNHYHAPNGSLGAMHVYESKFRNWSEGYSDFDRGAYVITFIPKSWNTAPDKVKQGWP

[4] = target: T4, pro-transglutaminase of S. mobaraense, Asp-Asn-Gly-Ala-Gly-Glu deletion type of the pro-structure part
T4 chain: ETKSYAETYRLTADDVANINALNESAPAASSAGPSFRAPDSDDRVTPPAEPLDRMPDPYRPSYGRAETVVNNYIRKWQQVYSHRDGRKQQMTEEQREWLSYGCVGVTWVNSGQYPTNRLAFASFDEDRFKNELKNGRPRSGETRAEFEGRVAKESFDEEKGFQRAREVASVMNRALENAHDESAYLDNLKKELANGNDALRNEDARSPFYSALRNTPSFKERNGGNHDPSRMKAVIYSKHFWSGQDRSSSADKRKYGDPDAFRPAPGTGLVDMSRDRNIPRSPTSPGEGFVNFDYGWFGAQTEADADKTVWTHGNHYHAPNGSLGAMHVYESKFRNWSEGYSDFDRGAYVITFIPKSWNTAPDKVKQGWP

[5] = target: T5, pro-transglutaminase of S. mobaraense, Gly-Pro-Arg type modified variant of the pro-structure part
T5 chain: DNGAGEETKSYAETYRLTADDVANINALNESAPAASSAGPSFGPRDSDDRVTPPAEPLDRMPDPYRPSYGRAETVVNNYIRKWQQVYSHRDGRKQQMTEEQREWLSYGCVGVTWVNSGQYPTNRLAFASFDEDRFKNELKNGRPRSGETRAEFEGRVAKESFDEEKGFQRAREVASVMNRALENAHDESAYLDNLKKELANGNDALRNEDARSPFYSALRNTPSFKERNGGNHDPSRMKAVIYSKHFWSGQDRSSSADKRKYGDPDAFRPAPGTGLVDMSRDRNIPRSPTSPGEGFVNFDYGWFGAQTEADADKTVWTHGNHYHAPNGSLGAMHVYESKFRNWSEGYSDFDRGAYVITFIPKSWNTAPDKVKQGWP

[6] = target: T6, pro-transglutaminase of S. mobaraense, Gly-Pro-Lys type modified variant of the pro-structure part
T6 chain: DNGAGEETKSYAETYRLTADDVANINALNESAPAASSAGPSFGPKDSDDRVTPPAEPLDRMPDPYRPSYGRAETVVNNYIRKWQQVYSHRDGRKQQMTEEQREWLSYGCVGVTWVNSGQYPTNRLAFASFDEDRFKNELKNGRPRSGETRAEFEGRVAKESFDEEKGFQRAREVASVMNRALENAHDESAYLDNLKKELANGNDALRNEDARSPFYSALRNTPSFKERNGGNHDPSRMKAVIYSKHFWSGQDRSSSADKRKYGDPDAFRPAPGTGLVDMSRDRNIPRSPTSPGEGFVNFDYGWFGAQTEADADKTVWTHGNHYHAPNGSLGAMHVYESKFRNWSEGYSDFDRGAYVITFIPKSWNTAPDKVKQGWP

[7] = target: T7, pro-transglutaminase of S. mobaraense, Phe-Arg-Ala-Pro deletion type and Arg insertion-variant of the pro-structure part
T7 chain: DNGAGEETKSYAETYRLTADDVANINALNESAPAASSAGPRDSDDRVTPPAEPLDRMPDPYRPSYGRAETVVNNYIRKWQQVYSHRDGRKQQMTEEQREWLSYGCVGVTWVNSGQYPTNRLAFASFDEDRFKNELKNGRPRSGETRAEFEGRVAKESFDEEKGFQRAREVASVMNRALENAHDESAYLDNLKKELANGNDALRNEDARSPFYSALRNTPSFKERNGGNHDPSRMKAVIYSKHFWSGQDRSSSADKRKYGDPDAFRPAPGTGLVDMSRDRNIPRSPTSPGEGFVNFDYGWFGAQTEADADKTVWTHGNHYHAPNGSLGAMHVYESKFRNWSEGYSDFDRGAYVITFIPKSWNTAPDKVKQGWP

[8] = target: T8, pro-transglutaminase of S. mobaraense, Phe-Arg-Ala-Pro deletion type and Lys insertion-variant of the pro-structure part
T8 chain: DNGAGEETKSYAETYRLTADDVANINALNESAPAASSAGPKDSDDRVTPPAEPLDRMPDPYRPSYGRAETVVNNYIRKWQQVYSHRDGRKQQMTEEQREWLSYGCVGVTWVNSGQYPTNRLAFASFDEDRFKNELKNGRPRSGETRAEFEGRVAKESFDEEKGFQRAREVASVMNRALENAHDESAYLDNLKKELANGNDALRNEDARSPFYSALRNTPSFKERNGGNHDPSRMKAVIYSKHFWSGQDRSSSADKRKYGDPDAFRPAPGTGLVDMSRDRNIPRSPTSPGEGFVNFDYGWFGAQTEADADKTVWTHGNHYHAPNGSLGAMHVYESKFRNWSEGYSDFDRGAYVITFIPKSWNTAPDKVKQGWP

[9] = target: T9, pro-transglutaminase of S. mobaraense, Phe-Arg-Ala-Pro deletion type of the pro-structure part
T9 chain: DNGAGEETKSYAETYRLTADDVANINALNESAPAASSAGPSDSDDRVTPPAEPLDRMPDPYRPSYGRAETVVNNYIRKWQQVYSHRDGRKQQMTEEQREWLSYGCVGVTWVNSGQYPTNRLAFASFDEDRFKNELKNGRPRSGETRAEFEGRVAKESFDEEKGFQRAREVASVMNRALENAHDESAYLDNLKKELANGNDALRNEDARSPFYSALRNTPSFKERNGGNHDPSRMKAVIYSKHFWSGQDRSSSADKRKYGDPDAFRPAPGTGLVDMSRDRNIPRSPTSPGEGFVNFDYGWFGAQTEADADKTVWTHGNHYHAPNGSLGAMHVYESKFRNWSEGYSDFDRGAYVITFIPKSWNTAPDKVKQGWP

B1: SAMP45, serine protease produced by Streptomyces albogriseolus (protein)
chain: NGENSTAAGSSASATALKGKHRVTLITGDRVALDAKGRVVGLEPAEGREHIPVQIRRSDGHTLVVPADAARLVASGKLDQRLFDVTELNKAATRTAHRGGLKVIVGYRGAAKAAKADVRDAGTVRRTLTSLNADAVQTPQEAGAELWEAVTDGDRTASGVARVWLDGVRKASLDTSVGQIGTPKAWEAGYDGKGVKIAVLDTGVDATHPDLKGQVTASKNFTSAPTTGDVVGHGTHVASIAAGTGAQSKGTYKGVAPGAKILNGKVLDDAGFGDDSGILAGMEWAAAQGADIVNMSLGGMDTPETDPLEAAVDKLSAEKGILFAIAAGNEGPQSIGSPGSADSALTVGAVDDKDKLADFSSTGPRLGDGAVKPDLTAPGVDITAASAKGNDIAKEVGEKPAGYMTISGTSMATPHVAGAAALLKQQHPEWKYAELKGALTASTKDGKYTPFEQGSGRVQVDKAITQTVIAEPVSLSFGVQQWPHADDKPVTKKLTYRNLGTEDVTLKLTSTATGPKGKAAPAGFFTLGASTLTVPANGTASVDVTADTRLGGAVDGTYSAYVVATGAGQSVRTAAAVEREVESYNVTLKVLDRSGKATANYMAYLSGLTGLGKDRSYAPYEADGAVSVRVPKGGYVLDASVLVGADPETWRGADWLAQPKLDVTRNTTVTVDARKAKPVKVTVPGKAAKAQFASADYTIETNDSAVSYGWWLENYSGFRSAHLGPQITNGTLSQQWNTHFSNGAKAQYTAISGGKVKKLATGYTRAFKAKEFATVQVGMGAAASGKKGAVTAFGWLPGSSGASGFSQEQKLPSTRTLYLSTVNGVTWDLDFEQLGGVDNEGWPIYDAVYTIGVGKTYKGGKTYKETVNTAVFGPRLTSSYGVFRDGNSIYGVIPLFADGKGHAGSSEFSSAVTTLYRNGKKVGSNNDPLFGEEGFTVPSGDAAYRLTTSVKRSAKVAAASTRIDASWTFRSKKTSGEKQLPVSSARFAAVTGLDSKVAAGKKATFPVVVEGAAQGKNLKSLAVYVSYNGGKTWKKTTVTKGKITVKNPAKGKAISFRAKITDKKGNASLITIHNAYYGK
N-terminal amino acid sequence of the cleaved transglutaminase [1]: it had the structure in which the 4 C-terminal amino acids of Phe-Arg-Ala-Pro from the pro-structure part was added to the naturally occurring mature transglutaminase | N-terminal amino acid sequence of the cleaved transglutaminase [2]: Phe-Arg was added to the N-terminal of the naturally occurring mature transglutaminase shown in SEQ ID NO: 5 in the transformant harboring pPKSPTG1 AP | N-terminal amino acid sequence of the cleaved transglutaminase [3]: Phe-Arg-Ala-Pro was added to the naturally occurring mature transglutaminase in the transformant harboring pPKSPTG1 D or pPKSPTG1 DNGAGE | N-terminal amino acid sequence of the cleaved transglutaminase [4]: Phe-Arg-Ala-Pro was added to the naturally occurring mature transglutaminase in the transformant harboring pPKSPTG1 D or pPKSPTG1 DNGAGE | N-terminal amino acid sequence of the cleaved transglutaminase [5]: the sequence identical to that of the naturally occurring mature transglutaminase was confirmed for C. glutamicum ATCC13869 harboring pVSS1 and pPKSPTG11, or pVSS1 and pPKSPTG12, which had Asp as the N-terminal amino acid residue | N-terminal amino acid sequence of the cleaved transglutaminase [6]: the sequence identical to that of the naturally occurring mature transglutaminase was confirmed for C. glutamicum ATCC13869 harboring pVSS1 and pPKSPTG11, or pVSS1 and pPKSPTG12, which had Asp as the N-terminal amino acid residue | N-terminal amino acid sequence of the cleaved transglutaminase [7]: Ser-Ala-Gly-Pro-Lys (SEQ ID NO: 69) or Ser-Ala-Gly-Pro-Arg (SEQ ID NO: 70) was found to be added to the sequence of the naturally occurring mature transglutaminase for C. glutamicum ATCC13869 harboring pVSS1 and pPKSPTG13, or pVSS1 and pPKSPTG14 | N-terminal amino acid sequence of the cleaved transglutaminase [8]: Ser-Ala-Gly-Pro-Lys (SEQ ID NO: 69) or Ser-Ala-Gly-Pro-Arg (SEQ ID NO: 70) was found to be added to the sequence of the naturally occurring mature transglutaminase for C. glutamicum ATCC13869 harboring pVSS1 and pPKSPTG13, or pVSS1 and pPKSPTG14 | N-terminal amino acid sequence of the cleaved transglutaminase [9]: Ser-Ala-Gly-Pro-Ser was added to the N-terminal of the naturally occurring mature transglutaminase in the transformant harboring pPKSPTG1 FRAP

Reference: patent US20030082746
